The values that follow come from US20100331246A1 (INDIANA UNIVERSITY RESEARCH AND TECHNOLOGY, published 2010).

Assay in all cases: cell-based or functional assay
Assay [1] deals with GLP-1 receptor (UniProt P43220).
The target in assay [2] is glucagon receptor (UniProt P47871 26-477).
The target in assay [3] is GLP-1 receptor (UniProt P43220 24-463, limits assumed).

Where two headings read alike, the source gives them in different places.

Sequence of GLP-1 receptor (UniProt P43220) (P43220 24-463 limits assumed): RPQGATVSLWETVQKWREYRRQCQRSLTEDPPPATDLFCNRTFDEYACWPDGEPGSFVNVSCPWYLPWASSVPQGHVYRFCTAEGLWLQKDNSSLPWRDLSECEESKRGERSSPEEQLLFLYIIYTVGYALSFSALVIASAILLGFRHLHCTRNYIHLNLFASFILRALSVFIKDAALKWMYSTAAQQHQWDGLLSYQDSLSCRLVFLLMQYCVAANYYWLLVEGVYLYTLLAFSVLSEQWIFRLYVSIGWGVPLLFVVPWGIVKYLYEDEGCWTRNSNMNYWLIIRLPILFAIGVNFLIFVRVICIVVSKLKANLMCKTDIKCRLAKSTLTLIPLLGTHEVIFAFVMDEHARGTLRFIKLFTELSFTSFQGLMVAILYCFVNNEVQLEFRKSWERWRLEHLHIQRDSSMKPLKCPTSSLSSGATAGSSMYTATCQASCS

Consider (H7F),(E9Q),GLP(8-36)-CEX (peptide), for which the % potency with respect to GLP-1 in assay [1] amounted to 33.3%.

In assay [2], “[PLA6, D9, E16, K20E24(Lactam), D28]G(6-29) (peptide)” yielded a Glucagon IC50 of 74 nM. Moreover, in assay [3], the GLP-1 EC50 amounted to 239 nM.

Regarding “[PLA6, D9, E16K20(lactam), D28]G(6-29) (peptide)”, the Glucagon IC50 in assay [2] was 10 to 30 nM; in assay [2] (record 2) it was 6 nM. In addition, the GLP-1 EC50 is 5 to 25 nM in assay [3] and 4 nM in assay [3] (record 2).

In the case of HO-F^5F^6-O-F^7,GLP(8-36)-CEX (peptide), in assay [1], the % potency with respect to parent came out at 3.6%; the % potency with respect to parent, before incubation is 3.7%; the % potency with respect to parent, prodrug incubated in PBS for 24 hrs was 17.2%.

As to HO-F5dV6-O-F7,GLP(8-36)-CEX (peptide), the % potency with respect to parent in assay [3] is 7%.

As for F^5V^6-O-F^7,GLP(8-36)-CEX (peptide), the % potency with respect to parent in assay [1] was 1.3%.

In the case of “[E9, E16K20(lactam), D28]G(4~29) (peptide)”, the Glucagon IC50 in assay [2] was 10 to 30 nM. The GLP-1 EC50 in assay [3] is 151 nM.

For “[PLA6, D9, K12E16(Lactam), D28]G(6-29) (peptide)”, the Glucagon IC50 in assay [2] was 63 nM; in assay [2] (record 2), 13 nM. Also, the GLP-1 EC50 in assay [3] turned out to be 177 nM; in assay [3] (record 2) it was 21 nM.

“[PLA6, D9, E16, E24K28(lactam), D28]G(6~29) (peptide)” had a Glucagon IC50 in assay [2] of 22 nM. The substance further returned a GLP-1 EC50 in assay [3] of 289 nM.

In the case of G^5V^6-O-F^7,GLP(8-36)CEX (peptide), in assay [1], the % potency with respect to parent came to 12%; the % potency with respect to parent, before incubation was 10.9%; the % potency with respect to parent, prodrug incubated in PBS for 24 hrs came to 46%; the % potency with respect to parent, prodrug incubated in PBS for 168 hrs worked out at 95.8%.

As for “[A2E3, E16K20(Lactam), D28]G(2~29) (peptide)”, the Glucagon IC50 in assay [2] worked out at 63 nM.

As to “[A2E3, E16K20(Lactam), D28]G(1~29) (peptide)”, in assay [2], the Glucagon IC50 stood at 130 nM. In assay [3], the GLP-1 EC50 came out at 0.2 nM.
